Results: article PMC3542637

What was measured:
Assay in all cases: purified protein
[1] = substrate: O=C1O[C@H](CO)[C@@H](O)[C@@H]1O; type: biochemical, Burkholderia multivorans; conditions: pH 8.3, 2.5 mM BICINE, 0.2 M NaCl, 1% DMSO, 30 °C
[2] = substrate: O=C1O[C@H]([C@@H](O)CO)[C@@H](O)[C@@H]1O; type: biochemical, Burkholderia multivorans; conditions: pH 8.3, 2.5 mM BICINE, 0.2 M NaCl, 1% DMSO, 30 °C
[3] = substrate: C[C@H]1C[C@@H](O)[C@H](O)C(=O)O1; type: biochemical, Burkholderia multivorans; conditions: pH 7.1, 2.5 mM MOPS, 0.2 M NaCl, 1% DMSO, 30 °C
[4] = substrate: O=C1O[C@@H](CO)[C@@H](O)[C@@H]1O; type: biochemical, Burkholderia multivorans; conditions: pH 8.3, 2.5 mM BICINE, 0.2 M NaCl, 1% DMSO, 30 °C
[5] = substrate: C[C@H](O)[C@H]1OC(=O)[C@@H](O)[C@@H]1O; type: biochemical, Burkholderia multivorans; conditions: pH 8.3, 2.5 mM BICINE, 0.2 M NaCl, 1% DMSO, 30 °C
[6] = substrate: O=C1O[C@H](CO)[C@@H](O)[C@@H]1O; type: biochemical, Burkholderia ambifaria; conditions: pH 8.3, 2.5 mM BICINE, 0.2 M NaCl, 1% DMSO, 30 °C
[7] = substrate: O=C1O[C@H]([C@@H](O)CO)[C@@H](O)[C@@H]1O; type: biochemical, Burkholderia ambifaria; conditions: pH 8.3, 2.5 mM BICINE, 0.2 M NaCl, 1% DMSO, 30 °C
[8] = substrate: C[C@H]1C[C@@H](O)[C@H](O)C(=O)O1; type: biochemical, Burkholderia ambifaria; conditions: pH 7.1, 2.5 mM MOPS, 0.2 M NaCl, 1% DMSO, 30 °C
[9] = substrate: O=C1O[C@@H](CO)[C@@H](O)[C@@H]1O; type: biochemical, Burkholderia ambifaria; conditions: pH 8.3, 2.5 mM BICINE, 0.2 M NaCl, 1% DMSO, 30 °C
[10] = substrate: C[C@H](O)[C@H]1OC(=O)[C@@H](O)[C@@H]1O; type: biochemical, Burkholderia ambifaria; conditions: pH 8.3, 2.5 mM BICINE, 0.2 M NaCl, 1% DMSO, 30 °C
[11] = substrate: NC(=O)c1ccc[n+]([C@@H]2O[C@H](COP(=O)(O)OP(=O)(O)OC[C@H]3O[C@@H](n4cnc5c(N)ncnc54)[C@H](OP(=O)(O)O)[C@@H]3O)[C@@H](O)[C@H]2O)c1; type: biochemical, Burkholderia multivorans; conditions: 200 μM L-fucose, pH 8.0, 50 mM BICINE, 30 °C, varied: cofactor
[12] = substrate: NC(=O)c1ccc[n+]([C@@H]2O[C@H](COP(=O)(O)OP(=O)(O)OC[C@H]3O[C@@H](n4cnc5c(N)ncnc54)[C@H](O)[C@@H]3O)[C@@H](O)[C@H]2O)c1; type: biochemical, Burkholderia multivorans; conditions: 200 μM L-fucose, pH 8.0, 50 mM BICINE, 30 °C, varied: cofactor

B1: BmulJ_04915 (Burkholderia multivorans ATCC 17616) (protein)
chain: MGALRIDSHQHFWRYRAADYPWIGAGMGVLARDYLPDALHPLMHAQALGASIAVQARAGRDETAFLLELACDEARIAAVVGWEDLRAPQLAERVAEWRGTKLRGFRHQLQDEADVRAFVDDADFARGVAWLQANDYVYDVLVFERQLPDVQAFCARHDAHWLVLDHAGKPALAEFDRDDTALARWRAALRELAALPHVVCKLSGLVTEADWRRGLRASDLRHIEQCLDAALDAFGPQRLMFGSDWPVCLLAASYDEVASLVERWAESRLSAAERSALWGGTAARCYALPEPADARL
[1]
  Km: 700 ± 50 µM
  kcat: 59 ± 2 s⁻¹
[2]
  Km: 1100 ± 200 µM
  kcat: 32 ± 2 s⁻¹
[3]
  Km: 130 ± 30 µM
  kcat: 994 ± 64 s⁻¹
[4]
  Km: 1500 ± 300 µM
  kcat: 14 ± 1 s⁻¹
[5]
  Km: 1400 ± 200 µM
  kcat: 140 ± 8 s⁻¹

B2: Bamb_1224 (Burkholderia ambifaria AMMD) (protein)
chain: MTFRIDAHQHFWQMASRDGYWPPQTLDAIYRDFGPQDLEPLLARSGVQRTVVVQSLPTQEDTRYLLDVASRTSFVAAVVGWVDLKSTDAPADIASLARDPKFRGIRPMLQDLADDDWIDDPVLEPAIDAMLAHDLAFDALVTPRHLPALLAFARRYPRLRIVIDHAAKPPIASGRSEAWHVAMSELAAHPNVHCKLSGLWTEAGPHPDLLRVEPYVRAVCDWFGASRLIWGSDWPVSRLAGHFGDYGAWLAWCEQCCDRFLGPDARARVFGGNACHFYRIDRPSGDQHAQ
[6]
  Km: 800 ± 100 µM
  kcat: 19 ± 1 s⁻¹
[7]
  Km: 1300 ± 100 µM
  kcat: 55 ± 2 s⁻¹
[8]
  Km: 210 ± 20 µM
  kcat: 1530 ± 47 s⁻¹
[9]
  Km: 1300 ± 300 µM
  kcat: 6.0 ± 0.5 s⁻¹
[10]
  Km: 900 ± 100 µM
  kcat: 89 ± 4 s⁻¹

B3: BmulJ_04919 (Burkholderia multivorans ATCC 17616) (protein)
chain: MDLNLQDKVVIVTGGASGIGGAISMRLAEERAIPVVFARHAPDGAFLDALAQRQPRATYLPVELQDDAQCRDAVAQTIATFGRLDGLVNNAGVNDGIGLDAGRDAFVASLERNLIHYYAMAHYCVPHLKATRGAIVNISSKTAVTGQGNTSGYCASKGAQLALTREWAVALREHGVRVNAVIPAEVMTPLYRNWIATFEDPEAKLAEIAAKVPLGRRFTTPDEIADTAVFLLSPRASHTTGEWLFVDGGYTHLDRALV
[11]
  Km: 4.0 ± 0.5 µM
  kcat: 11 ± 0.2 s⁻¹
  kcat/Km: 3e+06 M⁻¹ s⁻¹
[12]
  Km: 28 ± 4 µM
